Test system: MS2 coat protein
Test: apparent KD of MS2 coat protein; higher = weaker reporter binding
Conditions: Eterna round: R107
Summary of the method: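 SNAP-549-labelled MS2 coat protein was titrated onto designed RNA switches that had been transcribed on-chip from Illumina sequencing clusters. Amounts doubled from 0.7 or 1.5 nM to 3 µM in 100 mM Tris-HCl pH 7.5, 80 mM KCl, 4 mM MgCl2, with constant ligand or without. Apparent KD is the median per design of normalised cluster binding-curve fits.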

[1] = input ligand: theophylline 20 uM
[2] = input ligand: theophylline 2 mM
[3] = input ligand: tryptophan 2.4 mM

Row | Sequence | apparent KD of MS2 coat protein (input ligand: arginine 13.2 mM) | apparent KD of MS2 coat protein (input ligand: none) | apparent KD of MS2 coat protein [1] | apparent KD of MS2 coat protein [2] | apparent KD of MS2 coat protein [3]
1 | UGGUGUAGGGUAAAUAGGCUGAGUACAGAAGGAGCGCGAAUAAACGCAGGUAGGUCGCUGGACACAUGAGGAUCACCCAUGUUGA [Same State Arginine A GF 29] | 10.8 nM | 20.5 nM | 31.9 nM | 27.3 nM | 21.2 nM
2 | UGUAACAUGAGGAUCACCCAUGUGAGUGAUACCAGACUAGUAUUAGUCCCUUGGCAGCACGCUGGGCGAGUGUAUAGUCUAUGCG [Same State - Theophylline A (Freestyle 15)] | 69 nM | – | 125 nM | – | 75.5 nM
3 | UGUAACAUGAGGAUCACCCAUGUGAGUGAUACCAGACUAGUGUUAGUCCCUUGGCAGCACGCUGGGCGAGUGUGUAGUCUAUGCG [Same State - Theophylline A (Freestyle 16)] | 60.9 nM | 108 nM | 136 nM | 117 nM | 105 nM
4 | UGUAACAUGAGGAUCACCCAUGUGAGUGAUACCAGACUAGUGUUGGUCCCUUGGCAGCACGCUGGACGAAUGUGUAGUCUAUGCG [Same State - Theophylline A (Freestyle 18)] | 59.5 nM | – | 107 nM | – | 77.4 nM
5 | UGUAACAUGAGGAUCACCCAUGUGAGUGAUACCAGAUUAGUAUUAGUCCCUUGGCAGCACGUUGGGCGAGUGUAUAGUCUAUGCG [Same State - Theophylline A (Freestyle 13)] | 90.9 nM | – | 162 nM | – | –
6 | UGUAACAUGAGGAUCACCCAUGUGCACGAUACCAGCUUAUUGAUAGGCCCUUGGCAGCGUAUGCGGAAGCUGUAUAAUAUAUAUC [#27 SameState-TheophyllineA] | 10.3 nM | – | 18.6 nM | – | 10.8 nM
7 | UGUAACAUGAGGAUCACCCAUGUGCACGAUACCAGCUUAUUGGUAGGCCCUUGGCAGCGUAUUCGGAAGAUGUAUAAUAUAUAUC [#26 SameState-TheophyllineA] | 12.3 nM | – | 17.4 nM | – | 12.1 nM
8 | UGUAAUGGGAUCAACCCAUGAGAGUCUGAAGGAGCGAUCGUAAGAUCAGGUAGGUCGCAGGAGACAUGAGGAUCACCCAUGUAUA [Arg A Ex t2] | 33.3 nM | 38.7 nM | 56.6 nM | 51.1 nM | 39.5 nM
9 | UGUACCAUGUCGGCCGCCACUUGAAAUAAACAAGAGGAUCACCCUUGUGACGUCAAAGACGUCUCAAGGACCGGGACAUGGUACU [TryBS Zipper #StaticStem #Zipper] | 168 nM | 313 nM | 281 nM | 357 nM | 19 nM
10 | UGUAUGGACUGAAGGAGCGCAUCAAAAUAACAUGAGGAUCACCCAUGUAAGGCGAAAGCCGUGCAGGUAGGUCGCAGUCCAUACU [ArgBX 3] | 14.9 nM | 15.6 nM | 17.3 nM | 18.8 nM | 15.3 nM
11 | UGUAUGGACUGAAGGAGCGCCUCAAAAUAACAUGAGGAUCACCCAUGUAGGCGAAAGCCUGGGCAGGUAGGUCGCAGUCCAUACU [ArgBX 2 #StaticStem #MS2Late] | 20.9 nM | 12.9 nM | 21.4 nM | 13.4 nM | 12.4 nM
12 | UGUAUGGACUGAAGGAGCGGAUGAUAUCAUGAGGAUCACCCAUGGAAUAAGGCGAAAGCCAUCCAGGUAGGUCGCAGUCCAUACU | 45.6 nM | 72.7 nM | 131 nM | 128 nM | 82.4 nM
13 | UGUAUGGACUGAAGGAGCGGGAAAAUAACCUGAGGAUCACCCAGGUAAAAGGCGAAAGCCACCCAGGUAGGUCGCAGUCCAUACU | 5.69 nM | 10.7 nM | 10.2 nM | 10.6 nM | 12.5 nM
14 | UGUAUGGACUGAAGGAGCGGGUUGAUAACCUGAGGAUCACCCAGGUAAAAGGCGAAAGCCACCCAGGUAGGUCGCAGUCCAUACU | 16.3 nM | 18.1 nM | 21.6 nM | 19.7 nM | 20 nM
15 | UGUAUGGACUGAAGGAGCGGGUUGAUAACUUGAGGAUCACCCAGGUAAAAGGCGAAAGCCACCCAGGUAGGUCGCAGUCCAUACU | 52.6 nM | 57.9 nM | 58.2 nM | 69.2 nM | 66.2 nM
16 | UGUAUGGACUGAAGGAGCGGUAGAUAACUUGAGGAUCACCCAGGUAAUAAGGCGAAAGCCUACCAGGUAGGUCGCAGUCCAUACU | 203 nM | 144 nM | 171 nM | 153 nM | 138 nM
17 | UGUAUGUGAUCUGAUACCAGAGUGAAUAAACCUGAGGAUCACCCUGGUACGCGAAAGCGACUCCCUUGGCAGCAGAUCGCAUACU | 127 nM | 163 nM | 108 nM | 21.8 nM | 156 nM
18 | UGUAUGUGAUCUGAUACCAGAGUGACGCGAAAGCGACCUGAGGAUCACCCUGGUAAAUAACUCCCUUGGCAGCAGAUCGCAUACU | 43.8 nM | 45 nM | 36.6 nM | 17.8 nM | 48.3 nM
19 | UGUAUGUGAUCUGAUACCAGCGUUGAUAACCUGAGGAUCACCCUGGUAAGGCGAAAGCCACGCCCUUGGCAGCAGAUCGCAUACU | 158 nM | – | 79.1 nM | 19.8 nM | 239 nM

— the supplement of paper PMC9170038
